2 molecules from article PMC7865483 (International Journal of Molecular Sciences, 2021) can be followed below.

For the assay, the target named is T1, Pank1 (pantothenate kinase 1), endogenous in A549 cells (human (endogenous in A549), UniProt Q8TE04 1-598).
T1 construct: pantothenate kinase 1, endogenous in the human lung cancer cell line A549; source: endogenous, A549 cells (fixed cells for PLA)
Briefly: proximity ligation; in situ PLA (Duolink) on fixed A549 cells, endogenous proteins; cells serum-starved for 24 h, or serum-starved and then treated with 500 μM H2O2. The settings on record: partners not purified.

T1 sequence (Q8TE04 whole entry): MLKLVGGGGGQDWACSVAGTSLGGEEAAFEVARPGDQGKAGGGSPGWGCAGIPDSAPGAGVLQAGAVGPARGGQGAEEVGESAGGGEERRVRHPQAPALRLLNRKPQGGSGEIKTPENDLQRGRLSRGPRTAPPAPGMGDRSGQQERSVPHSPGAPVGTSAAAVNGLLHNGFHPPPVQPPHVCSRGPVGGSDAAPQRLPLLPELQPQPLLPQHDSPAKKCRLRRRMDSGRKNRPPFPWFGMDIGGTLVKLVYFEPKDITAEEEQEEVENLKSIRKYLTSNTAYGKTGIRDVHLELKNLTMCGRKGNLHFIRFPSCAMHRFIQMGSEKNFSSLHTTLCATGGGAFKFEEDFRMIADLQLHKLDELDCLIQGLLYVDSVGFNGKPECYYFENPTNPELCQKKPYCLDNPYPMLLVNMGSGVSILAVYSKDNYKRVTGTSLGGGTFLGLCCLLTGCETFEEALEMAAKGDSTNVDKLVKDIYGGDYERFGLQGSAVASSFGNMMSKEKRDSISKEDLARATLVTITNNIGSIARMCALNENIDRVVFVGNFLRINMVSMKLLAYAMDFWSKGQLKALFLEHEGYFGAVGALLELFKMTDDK

B1: CoA synthase (CoAsy) (enzyme, human (endogenous in HEK293 and A549), UniProt Q13057 1-564, looked up)
chain: MAVFRSGLLVLTTPLASLAPRLASILTSAARLVNHTLYVHLQPGMSLEGPAQPQSSPVQATFEVLDFITHLYAGADVHRHLDVRILLTNIRTKSTFLPPLPTSVQNLAHPPEVVLTDFQTLDGSQYNPVKQQLVRYATSCYSCCPRLASVLLYSDYGIGEVPVEPLDVPLPSTIRPASPVAGSPKQPVRGYYRGAVGGTFDRLHNAHKVLLSVACILAQEQLVVGVADKDLLKSKLLPELLQPYTERVEHLSEFLVDIKPSLTFDVIPLLDPYGPAGSDPSLEFLVVSEETYRGGMAINRFRLENDLEELALYQIQLLKDLRHTENEEDKVSSSSFRQRMLGNLLRPPYERPELPTCLYVIGLTGISGSGKSSIAQRLKGLGAFVIDSDHLGHRAYAPGGPAYQPVVEAFGTDILHKDGIINRKVLGSRVFGNKKQLKILTDIMWPIIAKLAREEMDRAVAEGKRVCVIDAAVLLEAGWQNLVHEVWTAVIPETEAVRRIVERDGLSEAAAQSRLQSQMSGQQLVEQSHVVLSTLWEPHITQRQVEKAWALLQKRIPKTHQALD
As to B1, the “fold increase of the PLA signal after 24 h serum starvation, against control cells” value is about 10 fold and the “fold increase of the PLA signal after stress treatments, against control conditions” value is about 10 fold.

B2: 4′-phosphopantothenoylcysteine synthetase (PPCS) (enzyme)
chain: not shown
B2: the “fold increase of the PLA signal after stress treatments, against control conditions” value was about 10 fold.
